Measurements: patent US20060015949A1

Legend:
[1] = molecular target: recombinant soluble human CD4 (human) (UniProt P01730); experiment: SPR, sCD4 amine-coupled to sensor chip, mAb flowed over
[2] = molecular target: recombinant soluble human CD4 (human) (UniProt P01730); experiment: BIAcore, rCD4 coupled to chip, mAb flowed over (avidity)
[3] = molecular target: recombinant soluble human CD4 (human) (UniProt P01730); experiment: BIAcore on rCD4 (column repeats Table 19)
[4] = molecular target: recombinant soluble human CD4 (human) (UniProt P01730); experiment: ratio of Ka on rCD4 (BIAcore) to Ka on nCD4 (SupT1 flow cytometry)
[5] = molecular target: native human CD4 on the cell surface (human) (UniProt P01730); experiment: flow cytometry, serial dilutions on SupT1 cells, half-maximal fluorescence
[6] = molecular target: recombinant soluble human CD4 (human) (UniProt P01730); experiment: BIAcore, mAb captured by goat anti-human IgG Fc on chip, rCD4 flowed over (affinity)

Row | Ka [1] [M⁻¹] | koff [1] [s⁻¹] | kon [1] [M⁻¹ s⁻¹] | Ka [2] [M⁻¹] | koff [2] [s⁻¹] | kon [2] [M⁻¹ s⁻¹] | Ka [3] [M⁻¹] | Ratio of Ka (rCD4/nCD4) [4] | Ka [5] [M⁻¹] | Ka [6] [M⁻¹] | koff [6] [s⁻¹] | kon [6] [M⁻¹ s⁻¹] | Substance
1 | 3.7e+10 | 0.00042 | 150000 | 3.7e+10 | 4.2e-06 | 150000 | – | – | – | – | – | – | Leu3a (antibody)
2 | – | – | – | 3.4e+10 | 1.2e-05 | 400000 | 3.4e+10 | 6.1 | 5.6e+09 | 6.6e+08 | 0.00023 | 150000 | chimeric Leu3a (antibody)
